The source of these data is patent publication US20240425607A1, “IL-18BP ANTAGONIST ANTIBODIES AND THEIR USE IN MONOTHERAPY AND COMBINATION THERAPY IN THE TREATMENT OF CANCER” (Compugen Ltd., priority 2023, published 2024).

Data set [1] can be described thus: Fab Tm by dynamic scanning fluorimetry (DSF). The class given is physicochemical. The following applies: optimized antibodies. The protocol: 10 μL of 20× Sypro Orange is added to 20 μL of 0.2-1 mg/mL mAb or Fab solution. A RT-PCR instrument (BioRad CFX96 RT PCR) is used to ramp the sample plate temperature from 40 to 95° C. at 0.5° C. increment, with 2 min equilibrate at each temperature. The negative of first derivative for the raw data is used to extract Tm.

A short description of a further data set: SEC-HPLC % monomer. The format is physicochemical. The following applies: optimized antibodies. As to the method:
A TSKgel SuperSW mAb HTP column (22855) was used for fast SEC analysis of mammalian produced mAbs at 0.4 mL/min with a cycle time of 6 min/run. 200 mM Sodium Phosphate and 250 mM Sodium Chloride was used as the mobile phase.
Background: Size exclusion chromatography separates by hydrodynamic size, large species first.

For data set [2], the target named is T1, recombinant human IL18-BP (Homo sapiens, UniProt O95998).
T1 construct: purchased R&D systems 119-BP
T1 sequence (O95998 31-194): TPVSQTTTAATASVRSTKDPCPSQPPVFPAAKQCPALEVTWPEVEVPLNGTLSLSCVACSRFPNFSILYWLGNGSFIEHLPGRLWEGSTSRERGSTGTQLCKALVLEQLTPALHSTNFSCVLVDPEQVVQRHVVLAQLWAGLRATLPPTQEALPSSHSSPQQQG
Put plainly: CMV recall assay. The format is cell-based. The protocol:
Human MEL-624 overexpressing PD-L1 cells were thawed and loaded with CMV pp65 peptide (0.03 μg/ml). The cells were seeded at 100K/well in a 96 well plate and incubated for 30 minutes in 37° C., 5% C02 incubator with a combination rhIL-18 (30 ng/ml, R&D systems, 9124-IL/CF) and rhIL-18BP-Fc chimeric protein (2 μg/ml, R&D systems 119-BP) to allow IL-18+IL-18BP complex formation. After 30 minutes, anti-human IL-18BP (ADI-71722), anti-human PVRIG, anti-human TIGIT (anti-TIGIT), anti-human PD1 (Pembrolizumab) or relevant isotype control (hIgG4) were added to the culture to examine their capability to restore IL-18 activity. All antibodies were added to a final concentration of 10 μg/ml. 30 minutes post incubation with antibodies, thawed CMV-reactive T-cells were added to the culture. Cells and all added solutions were prepared in full IMDM (IMDM media with 10% human serum, 1% Glutamax, 1% MEM eagle, 1% sodium pyruvate, and 1% Penicillin-Streptomycin Solution) to a final volume of 200 μl/well. Plates were incubated for 24 hours in 37° C., 5% C02 incubator, after which the supernatant was collected for IFNγ secretion evaluation. All tests were done in triplicates and each repeated with three donors.
MEL624 cells that overexpress PD-L1 were loaded with CMV peptide pp65. […] CMV-specific T-cells were then added to the culture and IFNg secretion was measured after an overnight incubation.

The subject of data set [3] is MEL624 cells co-cultured with human TILs. Put plainly: Killing of MEL624 melanoma cells by human TILs (IncuCyte). The format is cell-based. The following applies: 10 μg/ml; rhIL-18 50 ng/ml + rhIL-18BP 1 μg/ml; 72 hours. As to the method: The co-culture was monitored for 72 hours using an IncuCyte live cell imaging instrument. […] In the presence of the isotype control antibody (black), IL-18BP abrogated the effects of IL-18, while the anti-IL-18BP antibody (turquoise) was able to completely restore these effects.

The subject of data set [4] is human TDCs with endogenous IL18 and IL18BP. Put plainly: Ex vivo culture of human tumor dissociated cells (TDCs). The format is cell-based. As to the method: Resected tumor specimens were cut into 1 mm pieces using scalpel and transferred into enzymatic digestion mix (Tumor Dissociation kit, Miltenyi, 130-095-929). Dissociation was done according to the manufacturer's instructions using gentle MACS Dissociator (Miltenyi Biotec). Dissociation time lasted 1 h under mechanical rotation and heating. Samples were centrifuged for 3 min at 300 g, pellet was resuspended in RPMI, passed through a MACS SmartStrainer (70 μm), and centrifuged for 7 min at 300 g. Cells were resuspended with RBC for 3 min, washed with RPMI 1640, transferred through 40 μm filter and centrifuged for 7 min at 300 g. Finally, cells were resuspended in PBS, stained with Trypan blue and counted. Samples were then stained for flow cytometric analyses or resuspended in fetal bovine serum containing 10% of dimethyl sulfoxide for storage in liquid nitrogen.
Human TDC samples were seeded at 0.1×10^6 of CD45+ cells per well in 96-well plate, pre-coated with anti-CD3 and anti-CD28 antibodies (10 μg/ml both). Complete medium, [RPMI 1640 (BI, Cat. #01-110-1A) supplemented with 10% human AB serum (Sigma, Cat. #H3667), 1% Penicillin/Streptomycin (BI, Cat. #03-031-1B), 1% 1-glutamine (Life Technologies, Cat. #35050-038) and 1% of sodium pyruvate (BI, Cat. #03-042-1B)] was used. […]

Entries after “also recorded” stand apart in the source; their conditions may differ.

B1: ADI-71739: anti-IL18-BP antibody, sequences in FIG. 2K; 66716 lineage (antibody, V domains shown)
VH: QLQLQESGPGLVKPSETLSLTCTVSGGSISSPDYPWGWIRQPPGKGLEWIGSIYYQGATYYNPSLKSRVTISVDTSKNQFSLKLSSVTAADTAVYYCARGPYRQLFDYWGQGTLVTVSS
VL: DIQMTQSPSSVSASVGDRVTITCRASQGISSWLAWYQQKPGKAPKLLIYAASSLQSGVPSRFSGSGSGTDFTLTISSLQPEDFATYYCQQGSVFPYTFGGGTKVEIK
Consider B1, for which the “Fab Tm (DSF, ° C.)” value in data set [1] worked out at 73.0 °C. Besides, in the data set “SEC-HPLC % monomer”, the “SEC-HPLC, % monomer” value is 94.9%. In data set [2] (10 μg/ml, rhIL-18 30 ng/ml + rhIL-18BP 2 μg/ml), the “IFNγ secretion by CMV-reactive T-cells, as mono” value is “increase IFNγ secretion from CMV-reactive T-cells; also recorded: increase IFNγ secretion by the T cells”. Besides, the “IFNγ secretion by CMV-reactive T-cells, in combination” value in data set [2] (combined with Pembrolizumab, anti-PVRIG or anti-TIGIT, each 10 μg/ml, vs mono) is reported as “in a more potent manner; also recorded: augmented”. In addition, the “Killing of melanoma cells by tumor infiltrating lymphocytes” value in data set [3] was “increased killing of melanoma cells”. For the same molecule, the “Cytokine and Granzyme B secretion by TDCs, vs media” value in data set [4] (10 μg/ml, anti-CD3/anti-CD28 stimulation, human ovarian TDC sample) was “enhanced TNFa, IFNg, IL2 and Granzyme B secretion”. Also, the “Cytokine and Granzyme B secretion by TDCs, combination with pembrolizumab vs Pembro alone” value in data set [4] (each 10 μg/ml) was “further increased TNFa, IFNg, and Granzyme B secretion”.
